Experimental findings from publication PMC7072329 (Biomolecules, 2020) are described below.

Assay [1] addresses T1, δ-opioid receptor (rat (endogenous in rat brain), UniProt P33533 1-372).
T1 construct: δ-opioid receptor, rat (Wistar), endogenous in brain membrane homogenate; defined by displacement of [^3H]Ile^5,6Delt II; In membranes, not on intact cells; also called DOR; source: endogenous, rat brain membrane homogenate
Description: radioligand binding. To be noted: one partner purified.

The target in assay [2] is T2, κ-opioid receptor (guinea pig (endogenous in guinea pig …, UniProt P41144 1-380)).
T2 construct: κ-opioid receptor, guinea pig, endogenous in brain membrane homogenate; defined by displacement of [^3H]HS665; In membranes, not on intact cells; also called KOR; k-opioid receptor; source: endogenous, guinea pig brain membrane homogenate
Description: radioligand binding; displacement of [^3H]HS665 from guinea pig brain membrane homogenate by unlabelled ligand (10^-10 to 10^-5 M); 50 mM Tris-HCl pH 7.4, 25 °C, 30 min; non-specific binding with 10 μM HS665; IC50 converted into Ki by Cheng-Prusoff. Particulars: one partner purified.

Assay [3] deals with T3, μ-opioid receptor (rat (endogenous in rat brain), UniProt P33535 1-398).
T3 construct: μ-opioid receptor, rat (Wistar), endogenous in brain membrane homogenate; defined by displacement of [^3H]DAMGO; In membranes, not on intact cells; also called MOR; µ-opioid receptor; source: endogenous, rat brain membrane homogenate
Description: radioligand binding; displacement of [^3H]DAMGO from rat brain membrane homogenate by unlabelled ligand (10^-10 to 10^-5 M); 50 mM Tris-HCl pH 7.4, 35 °C, 45 min; non-specific binding with 10 μM naloxone; IC50 converted into Ki by Cheng-Prusoff, one site competition fit. To be noted: one partner purified.

Assay [4] has as its target T3, μ-opioid receptor. Put plainly: cell-based or functional assay.
Assay [5] concerns the target T3, μ-opioid receptor. Description: cell-based or functional assay. This is another data set of the same source.

Where no end group is shown, it is not given here. [ ]: non-standard residue; d: D form. The star is where a group is joined. Kyn = Nc1ccccc1C(=O)C[C@H](N)C(=O)O; NMeF = CN[C@@H](Cc1ccccc1)C(=O)O; NHCH2CH2OH = OCCN*

T1 sequence (P33533 whole entry, stated change not applied): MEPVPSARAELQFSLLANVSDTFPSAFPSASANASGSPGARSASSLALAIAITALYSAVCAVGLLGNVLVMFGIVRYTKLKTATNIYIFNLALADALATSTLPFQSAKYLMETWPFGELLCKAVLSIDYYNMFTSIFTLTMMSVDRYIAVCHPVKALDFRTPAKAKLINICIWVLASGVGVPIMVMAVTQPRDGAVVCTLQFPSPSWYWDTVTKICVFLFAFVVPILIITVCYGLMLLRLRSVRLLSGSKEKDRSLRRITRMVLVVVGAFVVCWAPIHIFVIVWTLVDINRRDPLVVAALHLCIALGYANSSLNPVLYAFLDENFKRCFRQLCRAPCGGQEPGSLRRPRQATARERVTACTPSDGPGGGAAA
T3 sequence (P33535 whole entry): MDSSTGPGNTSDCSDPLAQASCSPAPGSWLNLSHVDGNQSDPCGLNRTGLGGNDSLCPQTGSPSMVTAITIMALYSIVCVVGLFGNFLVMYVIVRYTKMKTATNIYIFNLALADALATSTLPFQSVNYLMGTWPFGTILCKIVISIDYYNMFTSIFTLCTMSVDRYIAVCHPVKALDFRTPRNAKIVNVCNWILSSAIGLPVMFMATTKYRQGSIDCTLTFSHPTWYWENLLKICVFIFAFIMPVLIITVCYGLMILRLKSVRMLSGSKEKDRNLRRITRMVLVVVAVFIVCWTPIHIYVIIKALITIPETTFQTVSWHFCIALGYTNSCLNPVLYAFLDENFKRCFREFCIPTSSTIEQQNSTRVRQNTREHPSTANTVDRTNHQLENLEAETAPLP
T2 sequence (P41144 whole entry): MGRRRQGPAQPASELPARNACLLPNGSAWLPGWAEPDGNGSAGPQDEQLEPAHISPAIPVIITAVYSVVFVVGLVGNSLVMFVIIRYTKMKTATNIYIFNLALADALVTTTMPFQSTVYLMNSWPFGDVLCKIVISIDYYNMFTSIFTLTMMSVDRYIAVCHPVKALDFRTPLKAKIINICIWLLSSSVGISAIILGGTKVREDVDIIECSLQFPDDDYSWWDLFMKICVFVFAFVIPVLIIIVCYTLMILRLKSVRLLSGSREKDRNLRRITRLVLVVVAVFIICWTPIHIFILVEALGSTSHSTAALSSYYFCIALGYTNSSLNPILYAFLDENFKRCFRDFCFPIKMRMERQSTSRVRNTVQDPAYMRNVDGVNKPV

Consider Y[dA]GF[Kyn]-OMe [Peptide K4], for which the figures for the Ki in assay [1], in assay [2] and in assay [3] were 31.2 nM, greater than 10000 nM and 2.29 nM, respectively.

B1: Peptide K3 (peptide)
chain: YPF[Kyn]-NH2
modifications: N-terminus assumed
SMILES: NC(=O)[C@H](CC(=O)c1ccccc1N)NC(=O)[C@H](Cc1ccccc1)NC(=O)[C@@H]1CCCN1C(=O)[C@@H](N)Cc1ccc(O)cc1
With B1, the Ki (in general, the dissociation constant of the complex between target and ligand, obtained from inhibition or displacement) in assay [1] is 159 nM; in assay [2], greater than 10000 nM; in assay [3], 197 nM.

Y[dA]GF[Kyn]-OH [Peptide K5]: the inhibition constant Ki in assay [1] was 94.4 nM; in assay [2], greater than 10000 nM; in assay [3], 9.11 nM.

B2: Peptide KA1 (peptide)
peptide: Y[dA]G[NMeF][NHCH2CH2OH]-{kynurenic acid (ester on OH)}
notes: the order of couplings in Scheme 1 (ethanolamine-kyna ester, Boc-N-Me-Phe, Boc-Gly, Boc-DAla, Boc-Tyr) agrees; the drawn structure is in Scheme 1; also called kyna-containing peptide; source: synthetic peptide (solution phase synthesis, RP-HPLC purified, TFA salt)
Consider B2, for which the Ki in assay [1] was 555 nM; in assay [2], greater than 10000 nM.

YP[Kyn]F-NH2 [Peptide K2] registered a Ki in assay [3] of 1.39 nM. That is a single-digit nanomolar value.

Take Y[dA]GF[Kyn]-NH2 [Peptide K6]: the “logEC50 of [^35S]GTPγS binding as told in the conclusions (differs from Table 2)” value in assay [4] is -5.6. The Ki in assay [1] is 32.5 nM; in assay [2] it was 128 nM; in assay [3], 1.84 nM. Further, the “Log EC50 of [^35S]GTPγS binding (G-protein activation), rat brain membrane homogenates” value in assay [5] was -5.98.
